Among the data in patent US20190361034A1 are Bioactivity (CCL4 release) and Bioactivity (binding) values, retold here.

The target in assay [1] is MHC class II molecules on MHC class II-expressing Raji cells (human). The assay can be described thus: cell-based or functional assay.
Assay [2] shares this target. The assay can be described thus: BLI; immobilised sample, Raji cells in solution; FIG. 24. A general note: In BLI a coated tip is dipped into the sample, and binding shifts an interference pattern.
The target is the same in assay [3]. In words: BLI; immobilised sample, Raji cells in solution; FIG. 23.

“IMP321, Light, 10 D = 10 days (Fc fusion)” registered a Bioactivity (CCL4 release) in assay [1] of 73%. Besides, the Bioactivity (binding) in assay [2] amounted to 75%.

In assay [1], “IMP321 Oxidation, 1% H2O2 at 37° C. (1 D = 1 day) (Fc fusion)” showed a Bioactivity (CCL4 release) of 10%. Same read-out and setting: for “IMP321 Oxidation, 0.1% H2O2 at 37° C. (1 D = 1 day) (Fc fusion)” the value was 21%. As for “IMP321, Acid pH 3.0 at RT (1 D = 1 day) (Fc fusion)”, the Bioactivity (CCL4 release) in assay [1] turned out to be 7%. The same measure, in the same setting: the figure for “IMP321, Acid pH 3.1 at RT (1 D = 1 day) (Fc fusion)” is 15%. Consider IMP321, Light, 5 D = 5 days (Fc fusion), for which, in assay [1], the Bioactivity (CCL4 release) was 87%. Moreover, the Bioactivity (binding) in assay [3] was found to be 74%. On to “IMP321, Alkali pH 9.2 at 37° C. (1 D = 1 day) (Fc fusion)”, for which, in assay [1], the Bioactivity (CCL4 release) was 17%. Same read-out and setting: the figure for “IMP321, Acid pH 3.6 at RT (1 D = 1 day) (Fc fusion)” is 29%.
